The results in this text go back to article PMC6669903 (Neuron, 2019).

This experiment deals with Tiam1/CaMKII complex. Type of experiment: cell-based. The conditions noted are these: bath application (AP5, KN-93) or cotransfection (CaMKIIN).

B1: CaMKIIN: endogenous CaMKII inhibitor protein, cotransfected (protein)
chain: MSEILPYGEDKMGRFGADPEGSDLSFSCRLQDTNSFFAGNQAKRPPKLGQIGRAKRVVIEDDRIDDVLKGMGEKPPSGV
Take B1: the “effect on Tiam1/CaMKII interaction after sLTP induction” value is “blocked”.
